Data as given in US20230002480A1.

Experiments:
Test in all cases: cell-based or functional assay
[1] = molecular target: HIV-1 Env of pseudovirus 0260.v5.c36 (HIV-1)
[2] = molecular target: HIV-1 Env of pseudovirus 191955_A11 (HIV-1)
[3] = molecular target: HIV-1 Env of pseudovirus 235-47 (HIV-1)
[4] = molecular target: HIV-1 Env of pseudovirus 263-8 (HIV-1)
[5] = molecular target: HIV-1 Env of pseudovirus 3301.v1.c24 (HIV-1)
[6] = molecular target: HIV-1 Env of pseudovirus 3817.v2.c59 (HIV-1)
[7] = molecular target: HIV-1 Env of pseudovirus 6041.v3.c23 (HIV-1)
[8] = molecular target: HIV-1 Env of pseudovirus 6244_13_B5_4576 (HIV-1)
[9] = molecular target: HIV-1 Env of pseudovirus 6540.v4.c1 (HIV-1)
[10] = molecular target: HIV-1 Env of pseudovirus 6545.v4.c1 (HIV-1)
[11] = molecular target: HIV-1 Env of pseudovirus 9004SS_A3_4 (HIV-1)
[12] = molecular target: HIV-1 Env of pseudovirus BJOX028000.10.3 (HIV-1)
[13] = molecular target: HIV-1 Env of pseudovirus CNE20 (HIV-1)
[14] = molecular target: HIV-1 Env of pseudovirus CNE58 (HIV-1)
[15] = molecular target: HIV-1 Env of pseudovirus Ce0682_E4 (HIV-1)
[16] = molecular target: HIV-1 Env of pseudovirus Ce1172_H1 (HIV-1)
[17] = molecular target: HIV-1 Env of pseudovirus Du156.12 (HIV-1)
[18] = molecular target: HIV-1 Env of pseudovirus Du172.17 (HIV-1)
[19] = molecular target: HIV-1 Env of pseudovirus HIV-0013095-2.11 (HIV-1)
[20] = molecular target: HIV-1 Env of pseudovirus HIV-16055-2.3 (HIV-1)
[21] = molecular target: HIV-1 Env of pseudovirus HIV-16845-2.22 (HIV-1)
[22] = molecular target: HIV-1 Env of pseudovirus MS208.A1 (HIV-1)
[23] = molecular target: HIV-1 Env of pseudovirus Q461.e2 (HIV-1)
[24] = molecular target: HIV-1 Env of pseudovirus Q769.d22 (HIV-1)
[25] = molecular target: HIV-1 Env of pseudovirus R1166.c01 (HIV-1)
[26] = molecular target: HIV-1 Env of pseudovirus R2184.c04 (HIV-1)
[27] = molecular target: HIV-1 Env of pseudovirus THRO4156.18 (HIV-1)
[28] = molecular target: HIV-1 Env of pseudovirus TRJO4551.58 (HIV-1)
[29] = molecular target: HIV-1 Env of pseudovirus WITO4160.33 (HIV-1)
[30] = molecular target: HIV-1 Env of pseudovirus X1193_c1 (HIV-1)
[31] = molecular target: HIV-1 Env of pseudovirus X1632_S2_B10 (HIV-1)
[32] = molecular target: HIV-1 Env of pseudovirus X2131_C1_B5 (HIV-1)
[33] = molecular target: HIV-1 Env of pseudovirus ZM135M.PL10a (HIV-1)

B1: N49P23 (antibody, V domains shown)
VH: QVRLVQSGAGARKTGASMKLSCSTSGYTFTTHHGHFINWVRQARGQGLEWMGWMNPMTGQMNIEGKFQGRVTLTRDIYSDTAYMEMTRLTTGDTGTYYCARGDFGQNYPFHYWGQGSLVIVSS
VL: LSALTQPASVSGSPGQSVTISCSGTNRYLVSWYQQHPDKAPKLIIYDDNKRPSGISDRFSASRPDDTASLTISGLQTGDEATYWCASYERFGGGTRLTVLS
With B1 as the binder, how does the IC50 [1] read?
Its IC50 is 0.261 µg/mL.

What about the IC80 [1] of the same binder?
Its IC80 is 0.919 µg/mL.

And the MPI [1]?
Its MPI is 100.

And the IC50 [2]?
Its IC50 is over 50 µg/mL.

And the IC80 [2]?
The IC80 was over 50 µg/mL.

And the MPI [2]?
The MPI was 31.

And the IC50 [3]?
Its IC50 is 0.085 µg/mL.

What about the IC80 [3] of the same binder?
Its IC80 is 0.749 µg/mL.

What about the MPI [3] of the same binder?
Its MPI is 90.

And the IC50 [4]?
The IC50 was 0.012 µg/mL.

What about the IC80 [4] of the same binder?
Its IC80 is 0.096 µg/mL.

What about the MPI [4] of the same binder?
Its MPI is 100.

And the IC50 [5]?
Its IC50 is 0.017 µg/mL.

What about the IC80 [5] of the same binder?
Its IC80 is 0.058 µg/mL.

What about the MPI [5] of the same binder?
The MPI was 100.

And the IC50 [6]?
Its IC50 is over 50 µg/mL.

What about the IC80 [6] of the same binder?
The IC80 was over 50 µg/mL.

And the MPI [6]?
The MPI was 41.

What about the IC50 [7] of the same binder?
The IC50 was 7.47 µg/mL.

And the IC80 [7]?
Its IC80 is over 50 µg/mL.

And the MPI [7]?
Its MPI is 63.

What about the IC50 [8] of the same binder?
Its IC50 is 0.151 µg/mL.

And the IC80 [8]?
The IC80 was 0.57 µg/mL.

What about the MPI [8] of the same binder?
The MPI was 100.

And the IC50 [9]?
Its IC50 is over 50 µg/mL.

And the IC80 [9]?
Its IC80 is over 50 µg/mL.

What about the MPI [9] of the same binder?
Its MPI is 29.

What about the IC50 [10] of the same binder?
Its IC50 is over 50 µg/mL.

And the IC80 [10]?
The IC80 was over 50 µg/mL.

And the MPI [10]?
Its MPI is 10.

What about the IC50 [11] of the same binder?
The IC50 was 0.043 µg/mL.

And the IC80 [11]?
Its IC80 is 0.223 µg/mL.

What about the MPI [11] of the same binder?
The MPI was 100.

What about the IC50 [12] of the same binder?
Its IC50 is 0.021 µg/mL.

And the IC80 [12]?
Its IC80 is 0.123 µg/mL.

What about the MPI [12] of the same binder?
The MPI was 98.

And the IC50 [13]?
The IC50 was 45.4 µg/mL.

What about the IC80 [13] of the same binder?
Its IC80 is over 50 µg/mL.

What about the MPI [13] of the same binder?
Its MPI is 51.

What about the IC50 [14] of the same binder?
Its IC50 is over 50 µg/mL.

And the IC80 [14]?
Its IC80 is over 50 µg/mL.

And the MPI [14]?
The MPI was 9.

And the IC50 [15]?
The IC50 was 1.39 µg/mL.

What about the IC80 [15] of the same binder?
The IC80 was over 50 µg/mL.

What about the MPI [15] of the same binder?
The MPI was 76.

What about the IC50 [16] of the same binder?
The IC50 was over 50 µg/mL.

And the IC80 [16]?
Its IC80 is over 50 µg/mL.

What about the MPI [16] of the same binder?
Its MPI is 0.

What about the IC50 [17] of the same binder?
The IC50 was over 50 µg/mL.

What about the IC80 [17] of the same binder?
The IC80 was over 50 µg/mL.

What about the MPI [17] of the same binder?
Its MPI is 0.

And the IC50 [18]?
The IC50 was over 50 µg/mL.

And the IC80 [18]?
The IC80 was over 50 µg/mL.

And the MPI [18]?
The MPI was 45.

What about the IC50 [19] of the same binder?
The IC50 was 0.114 µg/mL.

What about the IC80 [19] of the same binder?
The IC80 was 0.899 µg/mL.

And the MPI [19]?
The MPI was 96.

And the IC50 [20]?
The IC50 was over 50 µg/mL.

And the IC80 [20]?
The IC80 was over 50 µg/mL.

And the MPI [20]?
Its MPI is 17.

What about the IC50 [21] of the same binder?
The IC50 was over 50 µg/mL.

What about the IC80 [21] of the same binder?
The IC80 was over 50 µg/mL.

What about the MPI [21] of the same binder?
The MPI was 20.

And the IC50 [22]?
The IC50 was 0.048 µg/mL.

What about the IC80 [22] of the same binder?
Its IC80 is 0.279 µg/mL.

And the MPI [22]?
Its MPI is 100.

And the IC50 [23]?
Its IC50 is 0.099 µg/mL.

What about the IC80 [23] of the same binder?
The IC80 was 0.464 µg/mL.

What about the MPI [23] of the same binder?
The MPI was 100.

And the IC50 [24]?
Its IC50 is 0.005 µg/mL.

And the IC80 [24]?
Its IC80 is 0.025 µg/mL.

What about the MPI [24] of the same binder?
Its MPI is 100.

And the IC50 [25]?
Its IC50 is 0.123 µg/mL.

What about the IC80 [25] of the same binder?
Its IC80 is 0.455 µg/mL.

And the MPI [25]?
Its MPI is 100.

What about the IC50 [26] of the same binder?
The IC50 was 0.008 µg/mL.

What about the IC80 [26] of the same binder?
The IC80 was 0.032 µg/mL.

And the MPI [26]?
Its MPI is 100.

And the IC50 [27]?
The IC50 was 1.98 µg/mL.

And the IC80 [27]?
The IC80 was 10.7 µg/mL.

What about the MPI [27] of the same binder?
The MPI was 97.

What about the IC50 [28] of the same binder?
The IC50 was 0.016 µg/mL.

And the IC80 [28]?
The IC80 was 0.068 µg/mL.

What about the MPI [28] of the same binder?
The MPI was 100.

And the IC50 [29]?
The IC50 was 0.045 µg/mL.

What about the IC80 [29] of the same binder?
Its IC80 is 0.205 µg/mL.

What about the MPI [29] of the same binder?
The MPI was 100.

What about the IC50 [30] of the same binder?
Its IC50 is 0.008 µg/mL.

And the IC80 [30]?
Its IC80 is 0.038 µg/mL.

What about the MPI [30] of the same binder?
Its MPI is 100.

And the IC50 [31]?
The IC50 was 0.13 µg/mL.

And the IC80 [31]?
The IC80 was over 50 µg/mL.

What about the MPI [31] of the same binder?
The MPI was 62.

What about the IC50 [32] of the same binder?
Its IC50 is 0.08 µg/mL.

What about the IC80 [32] of the same binder?
The IC80 was 0.28 µg/mL.

What about the MPI [32] of the same binder?
Its MPI is 100.

What about the IC50 [33] of the same binder?
Its IC50 is over 50 µg/mL.

And the IC80 [33]?
The IC80 was over 50 µg/mL.

And the MPI [33]?
Its MPI is 36.
